Test results published in the supplement of paper PMC7125110.
± gives the standard error. This sample holds only a part of the variants without activity.

B1: glmS ribozyme (parent)
chain: AUAAAAGCGCCAGAACUACAGAAAUGUAGUUGACGAGGAGGAGGUUUAUCGAAUUUUCGGCGGAUGCCUCCAAA

How the values were obtained:
Details in all cases: with glucosamine-6-phosphate
glucosamine-6-phosphate [1] = variants of: B1; assay: self-cleavage kobs at 40 uM GlcN6P; higher = faster cleavage; RNA array
Summary of the method: (§1)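 Barcoded ribozyme variants, transcribed in situ by E. coli RNA polymerase on sequenced MiSeq chips, were followed via a hybridised Cy3 probe at 37 °C. Glucosamine-6-phosphate ranged from 40 μM to 10 mM in HEPES/KCl/Mg(OAc)2 buffer. kobs came from decay fits to per-tile medians, and kcat and KM from weighted Michaelis–Menten fits.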

glucosamine-6-phosphate [2] = variants of: B1; assay: self-cleavage kobs at 640 uM GlcN6P; higher = faster cleavage; RNA array
Summary of the method: as §1

glucosamine-6-phosphate [3] = variants of: B1; assay: self-cleavage kobs at 2500 uM GlcN6P; higher = faster cleavage; RNA array
Summary of the method: as §1

glucosamine-6-phosphate [4] = variants of: B1; assay: self-cleavage kobs at 10000 uM GlcN6P; higher = faster cleavage; RNA array
Summary of the method: as §1

glucosamine-6-phosphate [5] = variants of: B1; assay: self-cleavage kobs at 160 uM GlcN6P; higher = faster cleavage; RNA array
Summary of the method: as §1

Variant	self-cleavage kobs at 40 uM GlcN6P (glucosamine-6-phosphate [1])	self-cleavage kobs at 640 uM GlcN6P (glucosamine-6-phosphate [2])	self-cleavage kobs at 2500 uM GlcN6P (glucosamine-6-phosphate [3])	self-cleavage kobs at 10000 uM GlcN6P (glucosamine-6-phosphate [4])	self-cleavage kobs at 160 uM GlcN6P (glucosamine-6-phosphate [5])
C50G G62A C70U	9.58e-05 ± 2.3e-05 s⁻¹	0.000184 ± 4.7e-05 s⁻¹	0.000549 ± 0.00012 s⁻¹	0.000104 ± 1.6e-05 s⁻¹	–
C50G U69A	0.000132 ± 2.4e-05 s⁻¹	0.000587 ± 0.0001 s⁻¹	0.000186 ± 2.8e-05 s⁻¹	7.99e-05 ± 1.5e-05 s⁻¹	0.000172 ± 2.9e-05 s⁻¹
A48U G66C	< 1e-05 s⁻¹	–	–	–	< 1e-05 s⁻¹
U55A U69C	0.000718 ± 0.00017 s⁻¹	0.000329 ± 0.0001 s⁻¹	7.69e-05 ± 3e-05 s⁻¹	0.00148 ± 0.0004 s⁻¹	0.000108 ± 3.1e-05 s⁻¹
A48U G63A	< 1e-05 s⁻¹	< 1e-05 s⁻¹	< 1e-05 s⁻¹	< 1e-05 s⁻¹	–
G51U G60U	< 1e-05 s⁻¹	< 1e-05 s⁻¹	< 1e-05 s⁻¹	< 1e-05 s⁻¹	< 1e-05 s⁻¹
U49G G51A	< 1e-05 s⁻¹	< 1e-05 s⁻¹	< 1e-05 s⁻¹	< 1e-05 s⁻¹	< 1e-05 s⁻¹
A52U A64G C70A	< 1e-05 s⁻¹	–	–	–	–
U55G G60U	< 1e-05 s⁻¹	< 1e-05 s⁻¹	< 1e-05 s⁻¹	–	< 1e-05 s⁻¹
A52C G62C C70A	< 1e-05 s⁻¹	–	–	–	–
A48G A52G C58U	< 1e-05 s⁻¹	–	–	–	–
U49C U54G	< 1e-05 s⁻¹	< 1e-05 s⁻¹	–	< 1e-05 s⁻¹	< 1e-05 s⁻¹
G51U C58A G60U	< 1e-05 s⁻¹	–	–	< 1e-05 s⁻¹	–
G51C C61U	< 1e-05 s⁻¹	–	–	–	–
G51A A64U	< 1e-05 s⁻¹	–	–	–	< 1e-05 s⁻¹
U54G G63C	< 1e-05 s⁻¹	< 1e-05 s⁻¹	< 1e-05 s⁻¹	< 1e-05 s⁻¹	–
A48C A64U	< 1e-05 s⁻¹	< 1e-05 s⁻¹	–	–	< 1e-05 s⁻¹
G59C C70U	< 1e-05 s⁻¹	< 1e-05 s⁻¹	–	–	–
A52G G66C	< 1e-05 s⁻¹	–	4.69e-05 ± 1.5e-05 s⁻¹	–	–
U54G C71U	0.00109 ± 0.00015 s⁻¹	0.00857 ± 0.00098 s⁻¹	0.0283 ± 0.0078 s⁻¹	0.0636 ± 0.013 s⁻¹	0.00194 ± 0.00038 s⁻¹
C58G G59U	< 1e-05 s⁻¹	< 1e-05 s⁻¹	< 1e-05 s⁻¹	< 1e-05 s⁻¹	< 1e-05 s⁻¹
G51C C58G	< 1e-05 s⁻¹	–	–	–	–

Variant	self-cleavage kobs at 40 uM GlcN6P (glucosamine-6-phosphate [1])	self-cleavage kobs at 640 uM GlcN6P (glucosamine-6-phosphate [2])	self-cleavage kobs at 2500 uM GlcN6P (glucosamine-6-phosphate [3])	self-cleavage kobs at 10000 uM GlcN6P (glucosamine-6-phosphate [4])	self-cleavage kobs at 160 uM GlcN6P (glucosamine-6-phosphate [5])
U54A G62U	< 1e-05 s⁻¹	–	< 1e-05 s⁻¹	< 1e-05 s⁻¹	–
C50G C68U	0.000168 ± 2.2e-05 s⁻¹	0.00021 ± 2.4e-05 s⁻¹	0.000189 ± 2e-05 s⁻¹	0.000128 ± 1.3e-05 s⁻¹	0.000233 ± 4.2e-05 s⁻¹
C50G C68G	0.00159 ± 0.00078 s⁻¹	0.000121 ± 1.1e-05 s⁻¹	0.000142 ± 1.2e-05 s⁻¹	6.8e-05 ± 4.8e-06 s⁻¹	–
U56A G62C	< 1e-05 s⁻¹	–	< 1e-05 s⁻¹	< 1e-05 s⁻¹	–
A52U C58G	< 1e-05 s⁻¹	< 1e-05 s⁻¹	–	< 1e-05 s⁻¹	–
A52U C58A	< 1e-05 s⁻¹	< 1e-05 s⁻¹	–	–	–
G51C A53U U57C G59U	< 1e-05 s⁻¹	–	–	–	–
G51C U69C	< 1e-05 s⁻¹	–	< 1e-05 s⁻¹	< 1e-05 s⁻¹	–
A52C U55C	< 1e-05 s⁻¹	–	–	–	< 1e-05 s⁻¹
C58G G60A	< 1e-05 s⁻¹	–	–	–	–
U54A G63C	< 1e-05 s⁻¹	–	–	< 1e-05 s⁻¹	–
U54A G63A	< 1e-05 s⁻¹	< 1e-05 s⁻¹	–	–	< 1e-05 s⁻¹
U54A C71U	0.00124 ± 0.00023 s⁻¹	0.00337 ± 0.00063 s⁻¹	0.00313 ± 0.00083 s⁻¹	0.0214 ± 0.01 s⁻¹	0.00159 ± 0.00033 s⁻¹
U54A C71G	0.000131 ± 2.1e-05 s⁻¹	0.000507 ± 0.00011 s⁻¹	0.000368 ± 0.00016 s⁻¹	0.00197 ± 0.00046 s⁻¹	0.000336 ± 0.00012 s⁻¹
U54G U55A	0.00109 ± 0.00018 s⁻¹	–	–	0.0495 ± 0.015 s⁻¹	–
U49C G63C	< 1e-05 s⁻¹	< 1e-05 s⁻¹	–	–	–
U49C G63A	< 1e-05 s⁻¹	–	–	< 1e-05 s⁻¹	< 1e-05 s⁻¹
U55A U57C U69C C70U	< 1e-05 s⁻¹	–	–	–	–
U56G C67U	0.000109 ± 1.2e-05 s⁻¹	0.00135 ± 0.00015 s⁻¹	0.00142 ± 0.00022 s⁻¹	0.00538 ± 0.00085 s⁻¹	0.000258 ± 4.6e-05 s⁻¹
A53G U57C G63U	< 1e-05 s⁻¹	–	–	< 1e-05 s⁻¹	–
G51C C67A	< 1e-05 s⁻¹	< 1e-05 s⁻¹	< 1e-05 s⁻¹	–	< 1e-05 s⁻¹
U54C G60A	< 1e-05 s⁻¹	–	–	–	–

Variant	self-cleavage kobs at 40 uM GlcN6P (glucosamine-6-phosphate [1])	self-cleavage kobs at 640 uM GlcN6P (glucosamine-6-phosphate [2])	self-cleavage kobs at 2500 uM GlcN6P (glucosamine-6-phosphate [3])	self-cleavage kobs at 10000 uM GlcN6P (glucosamine-6-phosphate [4])	self-cleavage kobs at 160 uM GlcN6P (glucosamine-6-phosphate [5])
U54A G60C	< 1e-05 s⁻¹	< 1e-05 s⁻¹	–	< 1e-05 s⁻¹	–
U55A C61G	< 1e-05 s⁻¹	–	–	< 1e-05 s⁻¹	–
C50A G62A A64C	< 1e-05 s⁻¹	–	–	< 1e-05 s⁻¹	–
A52C C61U	< 1e-05 s⁻¹	< 1e-05 s⁻¹	< 1e-05 s⁻¹	< 1e-05 s⁻¹	–
C58A C61U G66U	< 1e-05 s⁻¹	–	–	–	–
C50G C58A C67U	3.98e-05 ± 1.7e-05 s⁻¹	–	–	5.82e-05 ± 1.9e-05 s⁻¹	–
U55A C71A	0.000472 ± 6.9e-05 s⁻¹	0.00299 ± 0.00056 s⁻¹	–	0.0132 ± 0.0032 s⁻¹	0.000925 ± 0.00023 s⁻¹
U55A C71G	8.5e-05 ± 2.2e-05 s⁻¹	0.00136 ± 0.00036 s⁻¹	0.000736 ± 0.00023 s⁻¹	0.00278 ± 0.0012 s⁻¹	0.000248 ± 9.2e-05 s⁻¹
U55A G63U	< 1e-05 s⁻¹	< 1e-05 s⁻¹	–	< 1e-05 s⁻¹	–
G51C G66C	< 1e-05 s⁻¹	< 1e-05 s⁻¹	–	–	< 1e-05 s⁻¹
G51C G66U	< 1e-05 s⁻¹	< 1e-05 s⁻¹	< 1e-05 s⁻¹	< 1e-05 s⁻¹	–
U55C C68G	< 1e-05 s⁻¹	–	–	< 1e-05 s⁻¹	–
U56C G59C	< 1e-05 s⁻¹	–	–	< 1e-05 s⁻¹	–
A53C G59A	< 1e-05 s⁻¹	< 1e-05 s⁻¹	–	–	–
A52C G60C	< 1e-05 s⁻¹	< 1e-05 s⁻¹	< 1e-05 s⁻¹	< 1e-05 s⁻¹	< 1e-05 s⁻¹
C50G C67U C68U C71U	0.000172 ± 4.1e-05 s⁻¹	0.000393 ± 0.00011 s⁻¹	0.000127 ± 3e-05 s⁻¹	7.29e-05 ± 1.3e-05 s⁻¹	–
A48G C50A	< 1e-05 s⁻¹	< 1e-05 s⁻¹	< 1e-05 s⁻¹	–	< 1e-05 s⁻¹
A53U G59C	< 1e-05 s⁻¹	< 1e-05 s⁻¹	< 1e-05 s⁻¹	< 1e-05 s⁻¹	< 1e-05 s⁻¹
U55C G63U U69A	< 1e-05 s⁻¹	< 1e-05 s⁻¹	–	< 1e-05 s⁻¹	–
U49C G60A	< 1e-05 s⁻¹	–	–	< 1e-05 s⁻¹	< 1e-05 s⁻¹
A52G A64U	< 1e-05 s⁻¹	–	–	–	< 1e-05 s⁻¹
U55A G60A C67U	< 1e-05 s⁻¹	–	–	–	–

Variant	self-cleavage kobs at 40 uM GlcN6P (glucosamine-6-phosphate [1])	self-cleavage kobs at 640 uM GlcN6P (glucosamine-6-phosphate [2])	self-cleavage kobs at 2500 uM GlcN6P (glucosamine-6-phosphate [3])	self-cleavage kobs at 10000 uM GlcN6P (glucosamine-6-phosphate [4])	self-cleavage kobs at 160 uM GlcN6P (glucosamine-6-phosphate [5])
U49G C61A G62U	< 1e-05 s⁻¹	< 1e-05 s⁻¹	< 1e-05 s⁻¹	< 1e-05 s⁻¹	–
G59A G62C	< 1e-05 s⁻¹	< 1e-05 s⁻¹	< 1e-05 s⁻¹	< 1e-05 s⁻¹	< 1e-05 s⁻¹
U49C U57A	< 1e-05 s⁻¹	–	–	–	–
C50G C67A C71A	5.33e-05 ± 1.4e-05 s⁻¹	0.0002 ± 3.8e-05 s⁻¹	8.26e-05 ± 1.6e-05 s⁻¹	6e-05 ± 1.6e-05 s⁻¹	0.000226 ± 3.6e-05 s⁻¹
C50G C61U	3.66e-05 ± 1.1e-05 s⁻¹	9.4e-05 ± 1.3e-05 s⁻¹	0.000423 ± 0.0002 s⁻¹	–	6.61e-05 ± 1.4e-05 s⁻¹
A48C A52C	< 1e-05 s⁻¹	< 1e-05 s⁻¹	< 1e-05 s⁻¹	< 1e-05 s⁻¹	< 1e-05 s⁻¹
A53U G60C	< 1e-05 s⁻¹	–	< 1e-05 s⁻¹	< 1e-05 s⁻¹	–
A48C U49C C61G	< 1e-05 s⁻¹	–	< 1e-05 s⁻¹	< 1e-05 s⁻¹	< 1e-05 s⁻¹
C50G C58A	5.49e-05 ± 1.6e-05 s⁻¹	0.000175 ± 4.4e-05 s⁻¹	0.000194 ± 3.7e-05 s⁻¹	3.98e-05 ± 1.7e-05 s⁻¹	0.000151 ± 4.4e-05 s⁻¹
C50G C58U	0.000198 ± 9.7e-05 s⁻¹	–	0.000443 ± 0.00019 s⁻¹	–	9.14e-05 ± 2.2e-05 s⁻¹
C50G C58G	8.56e-05 ± 1.3e-05 s⁻¹	0.000235 ± 5.2e-05 s⁻¹	6.82e-05 ± 1.8e-05 s⁻¹	–	0.000155 ± 2.6e-05 s⁻¹
U56C C58U G60U	< 1e-05 s⁻¹	–	< 1e-05 s⁻¹	–	< 1e-05 s⁻¹
A52U G63U	< 1e-05 s⁻¹	–	–	< 1e-05 s⁻¹	< 1e-05 s⁻¹
A53U U65A	4.97e-05 ± 1.8e-05 s⁻¹	–	0.00238 ± 0.00058 s⁻¹	0.00253 ± 0.00061 s⁻¹	7.52e-05 ± 2.1e-05 s⁻¹
U55G G63A	< 1e-05 s⁻¹	< 1e-05 s⁻¹	< 1e-05 s⁻¹	< 1e-05 s⁻¹	< 1e-05 s⁻¹
G59A A64U C67G	< 1e-05 s⁻¹	–	–	–	–
G59A A64C	< 1e-05 s⁻¹	< 1e-05 s⁻¹	< 1e-05 s⁻¹	–	< 1e-05 s⁻¹
A53C U57C C67G	< 1e-05 s⁻¹	–	–	< 1e-05 s⁻¹	–
U56C C61U C71U	< 1e-05 s⁻¹	–	–	–	–
U56G G62A	< 1e-05 s⁻¹	–	< 1e-05 s⁻¹	< 1e-05 s⁻¹	–
A48C C61U C67G	< 1e-05 s⁻¹	< 1e-05 s⁻¹	–	< 1e-05 s⁻¹	–
